Data from patent US20140213772A1 (AbbVie / Abbott, published 2014).

Tests used:
[1] = target: T1, IL-1B (UniProt P01584 117-269); assay: SPR (Biacore)
[2] = target: T1, IL-1B; assay: cell-based or functional assay
[3] = target: T2, IL-17 (UniProt Q16552 24-155); assay: cell-based or functional assay
[4] = target: T2, IL-17; assay: ELISA
[5] = target: T2, IL-17; assay: cell-based or functional assay; remark: listed apart in the source
[6] = target: T2, IL-17; assay: SPR (Biacore)
[7] = target: T3, TNF (UniProt P01375 77-233); assay: ELISA
T3 sequence (P01375 77-233 limits assumed): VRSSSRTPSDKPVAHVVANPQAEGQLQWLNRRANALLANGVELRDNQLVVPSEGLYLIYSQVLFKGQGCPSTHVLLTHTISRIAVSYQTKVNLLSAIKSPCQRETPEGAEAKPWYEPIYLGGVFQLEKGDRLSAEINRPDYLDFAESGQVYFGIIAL

[8] = target: T3, TNF; assay: cell-based or functional assay

T2 sequence (Q16552 24-155 limits assumed): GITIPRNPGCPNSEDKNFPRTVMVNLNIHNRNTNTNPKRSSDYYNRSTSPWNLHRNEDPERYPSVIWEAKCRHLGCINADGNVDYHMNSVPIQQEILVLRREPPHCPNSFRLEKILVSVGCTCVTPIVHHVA

| Kd [1] | IL-1B neutralization IC50 (pM) [2] | IL-17 neutralization IC50 (pM) [3] | EC50 [4] | Neutralization IC50 (pM), IL-17 [5] | Kd [6] | EC50 [7] | Neutralization IC50 (pM), TNF [8] | Binder |
| --- | --- | --- | --- | --- | --- | --- | --- | --- |
| 0.11 nM | 113 pM | 4 pM |  |  |  |  |  | CODH4 (bispecific antibody) chain 1: EVQLVQSGAEVKKPGESVKISCKASGGSFRSYGISWVRQAPGQGLEWMGGITHFFGITDYAQKFQGRVTITADESTTTAYMELSGLTSDDTAVYYCAREPNDFWGGYYDTHDFDSWGQGTTVTVSSGEVQLVESGGGVVQPGRSLRLSCSASGFIFSRYDMSWVRQAPGKGLEWVAYISHGGAGTYYPDSVKGRFTISRDNSKNTLFLQMDSLRPEDTGVYFCARGGVTKGYFDVWGQGTPVTVSSGG chain 2: DIQMTQSPSSLSASVGDRVTITCRASGNIHNYLTWYQQTPGKAPKLLIYNAKTLADGVPSRFSGSGSGTDYTFTISSLQPEDIATYYCQHFWSIPYTFGQGTKLQITGGGGGGGEIVLTQSPDFQSVTPKEKVTITCRASQNIGSELHWYQQKPDQSPKLLIKYASHSISGVPSRFSGSGSGTDFTLTINGLEAEDAATYYCHQSDTLPHTFGQGTKVDIKGGGGGR |
| 390 nM | 1660 pM | 7.4 pM |  |  |  |  |  | CODH15 (bispecific antibody) chain 1: EIVLTQSPDFQSVTPKEKVTITCRASQNIGSELHWYQQKPDQSPKLLIKYASHSISGVPSRFSGSGSGTDFTLTINGLEAEDAATYYCHQSDTLPHTFGQGTKVDIKGGGGGGGDIQMTQSPSSLSASVGDRVTITCRASGNIHNYLTWYQQTPGKAPKLLIYNAKTLADGVPSRFSGSGSGTDYTFTISSLQPEDIATYYCQHFWSIPYTFGQGTKLQITGGGGG chain 2: EVQLVESGGGVVQPGRSLRLSCSASGFIFSRYDMSWVRQAPGKGLEWVAYISHGGAGTYYPDSVKGRFTISRDNSKNTLFLQMDSLRPEDTGVYFCARGGVTKGYFDVWGQGTPVTVSSGEVQLVQSGAEVKKPGESVKISCKASGGSFRSYGISWVRQAPGQGLEWMGGITHFFGITDYAQKFQGRVTITADESTTTAYMELSGLTSDDTAVYYCAREPNDFWGGYYDTHDFDSWGQGTTVTVSSGGR |
|  |  |  | 0.203 nM | 10 pM |  |  |  | AB274 (antibody, V domains shown) VH: EVQLVQSGAEVKKPGSSVKVSCKASGGSFGGYGIGWVRQAPGQGLEWMGGITPFFGFADYAQKFQGRVTITADESTTTAYMELSGLTSDDTAVYYCARDPNEFWNGYYSTHDFDSWGQGTTVTVSS VL: EIVLTQSPDFQSVTPKEKVTITCRASQDIGSELHWYQQKPDQPPKLLIKYASHSTSGVPSRFSGSGSGTDFTLTINGLEAEDAGTYYCHQTDSLPYTFGPGTKVDIKR |
| 0.089 nM | 245 pM |  |  |  |  |  |  | AB270 (antibody, V domains shown, Benchmark anti-IL-1B mAb; also called 1B12.1; 1B12-1) VH: EVQLQESGPGLVKPSETLSLTCTVSGFSLSDYGVSWIRQPPGKGLEWLGLIWGGGDTYYNSPLKSRLTISKDNSKSQVSLKLSSVTAADTAVYYCAKQRTLWGYDLYGMDYWGQGTLVTVSS VL: DTQVTQSPSSLSASVGDRVTITCITSTDIDVDMNWYQQKPGKPPKLLISQGNTLRPGVPSRFSSSGSGTDFTFTISSLQPEDFATYYCLQSDNLPLTFGQGTKLEIK |
|  |  | 2 pM |  |  | 0.0009 nM |  |  | AB461 (antibody, V domains shown, Benchmark anti-IL-17 mAb; also called B6-5G) VH: EVQLVQSGAEVKKPGESVKISCKASGGSFRSYGISWVRQAPGQGLEWMGGITHFFGITDYAQKFQGRVTITADESTTTAYMELSGLTSDDTAVYYCAREPNDFWGGYYDTHDFDSWGQGTTVTVSS VL: EIVLTQSPDFQSVTPKEKVTITCRASQNIGSELHWYQQKPDQSPKLLIKYASHSISGVPSRFSGSGSGTDFTLTINGLEAEDAATYYCHQSDTLPHTFGQGTKVDIK |
|  |  |  |  |  |  | 0.398 nM | 6 pM | AB441 (antibody, V domains shown) VH: EVQLVQSGAEVKKPGASVKVSCKASGYTFANYGIIWVRQAPGQGLEWMGWINTYTGKPTYAQKFQGRVTMTTDTSTSTAYMELSSLRSEDTAVYYCARKLFTTMDVTDNAMDYWGQGTTVTVSS VL: DIQMTQSPSSLSASVGDRVTITCRASQDISQYLNWYQQKPGKAPKLLIYYTSRLQSGVPSRFSGSGSGTDFTLTISSLQPEDFATYFCQQGNTWPPTFGQGTKLEIKR |
| 800 nM | 2040 pM | 220 pM |  |  |  |  |  | CODH12 (bispecific antibody) chain 1: EVQLVESGGGVVQPGRSLRLSCSASGFIFSRYDMSWVRQAPGKGLEWVAYISHGGAGTYYPDSVKGRFTISRDNSKNTLFLQMDSLRPEDTGVYFCARGGVTKGYFDVWGQGTPVTVSSGGGGSGGGEIVLTQSPDFQSVTPKEKVTITCRASQNIGSELHWYQQKPDQSPKLLIKYASHSISGVPSRFSGSGSGTDFTLTINGLEAEDAATYYCHQSDTLPHTFGQGTKVDIKGGSGG chain 2: EVQLVQSGAEVKKPGESVKISCKASGGSFRSYGISWVRQAPGQGLEWMGGITHFFGITDYAQKFQGRVTITADESTTTAYMELSGLTSDDTAVYYCAREPNDFWGGYYDTHDFDSWGQGTTVTVSSGGGGSGGGDIQMTQSPSSLSASVGDRVTITCRASGNIHNYLTWYQQTPGKAPKLLIYNAKTLADGVPSRFSGSGSGTDYTFTISSLQPEDIATYYCQHFWSIPYTFGQGTKLQITGGGR |
| 0.13 nM | 1160 pM | 12 pM |  |  | < 0.0002 nM |  |  | CODH3 (bispecific antibody) chain 1: EVQLVESGGGVVQPGRSLRLSCSASGFIFSRYDMSWVRQAPGKGLEWVAYISHGGAGTYYPDSVKGRFTISRDNSKNTLFLQMDSLRPEDTGVYFCARGGVTKGYFDVWGQGTPVTVSSGEVQLVQSGAEVKKPGESVKISCKASGGSFRSYGISWVRQAPGQGLEWMGGITHFFGITDYAQKFQGRVTITADESTTTAYMELSGLTSDDTAVYYCAREPNDFWGGYYDTHDFDSWGQGTTVTVSSGG chain 2: EIVLTQSPDFQSVTPKEKVTITCRASQNIGSELHWYQQKPDQSPKLLIKYASHSISGVPSRFSGSGSGTDFTLTINGLEAEDAATYYCHQSDTLPHTFGQGTKVDIKGGGGGGGDIQMTQSPSSLSASVGDRVTITCRASGNIHNYLTWYQQTPGKAPKLLIYNAKTLADGVPSRFSGSGSGTDYTFTISSLQPEDIATYYCQHFWSIPYTFGQGTKLQITGGGGGR |
| 0.19 nM | 1300 pM | 30 pM |  |  | < 0.0001 nM |  |  | CODH1 (bispecific antibody) chain 1: EVQLQESGPGLVKPSETLSLTCTVSGFSLSDYGVSWIRQPPGKGLEWLGLIWGGGDTYYNSPLKSRLTISKDNSKSQVSLKLSSVTAADTAVYYCAKQRTLWGYDLYGMDYWGQGTLVTVSSGEVQLVQSGAEVKKPGESVKISCKASGGSFRSYGISWVRQAPGQGLEWMGGITHFFGITDYAQKFQGRVTITADESTTTAYMELSGLTSDDTAVYYCAREPNDFWGGYYDTHDFDSWGQGTTVTVSSGG chain 2: EIVLTQSPDFQSVTPKEKVTITCRASQNIGSELHWYQQKPDQSPKLLIKYASHSISGVPSRFSGSGSGTDFTLTINGLEAEDAATYYCHQSDTLPHTFGQGTKVDIKGGGGGGGDTQVTQSPSSLSASVGDRVTITCITSTDIDVDMNWYQQKPGKPPKLLISQGNTLRPGVPSRFSSSGSGTDFTFTISSLQPEDFATYYCLQSDNLPLTFGQGTKLEIKGGGGGR |
| 0.17 nM | 1600 pM | 29 pM |  |  | 0.0004 nM |  |  | CODH2 (bispecific antibody) chain 1: EVQLVQSGAEVKKPGESVKISCKASGGSFRSYGISWVRQAPGQGLEWMGGITHFFGITDYAQKFQGRVTITADESTTTAYMELSGLTSDDTAVYYCAREPNDFWGGYYDTHDFDSWGQGTTVTVSSGEVQLQESGPGLVKPSETLSLTCTVSGFSLSDYGVSWIRQPPGKGLEWLGLIWGGGDTYYNSPLKSRLTISKDNSKSQVSLKLSSVTAADTAVYYCAKQRTLWGYDLYGMDYWGQGTLVTVSSGG chain 2: DTQVTQSPSSLSASVGDRVTITCITSTDIDVDMNWYQQKPGKPPKLLISQGNTLRPGVPSRFSSSGSGTDFTFTISSLQPEDFATYYCLQSDNLPLTFGQGTKLEIKGGGGGGGEIVLTQSPDFQSVTPKEKVTITCRASQNIGSELHWYQQKPDQSPKLLIKYASHSISGVPSRFSGSGSGTDFTLTINGLEAEDAATYYCHQSDTLPHTFGQGTKVDIKGGGGGR |
